The target of series [1] is T1, vertebrate calmodulin (CaM) (vertebrate, UniProt P0DP23 1-149).
T1 construct: vertebrate calmodulin, expressed from a separate vector without a tag; source: HEK293S GnTI- cells infected with rEag1 and CaM baculoviruses, co-purified with rEag1 in the presence of Ca2+
As to the kind of experiment: cryo-EM structure; Eag1-CaM complex purified with Ca2+, reconstituted into 90:5:5 POPC:POPG:cholesterol liposomes with 300 mM KCl; polarized with valinomycin and exchange of the external solution to 300 mM NaCl (a smaller dataset on unpolarized vesicles too); 10 mM Tris pH 8.0. The conditions noted are these: both partners purified.

Series [2] concerns the molecule itself. Described as above.

This is an account of results in article PMC9674223, “Voltage-sensor movements in the Eag Kv channel under an applied electric field” (Proceedings of the National Academy of Sciences of the …, 2022).

B1: rat Eag1 with residues 773 to 886 truncated (rEag1) (natural protein, UniProt Q63472 1-962, looked up)
chain: MTMAGGRRGLVAPQNTFLENIVRRSNDTNFVLGNAQIVDWPIVYSNDGFCKLSGYHRAEVMQKSSACSFMYGELTDKDTVEKVRQTFENYEMNSFEILMYKKNRTPVWFFVKIAPIRNEQDKVVLFLCTFSDITAFKQPIEDDSCKGWGKFARLTRALTSSRGVLQQLAPSVQKGENVHKHSRLAEVLQLGSDILPQYKQEAPKTPPHIILHYCVFKTTWDWIILILTFYTAILVPYNVSFKTRQNNVAWLVVDSIVDVIFLVDIVLNFHTTFVGPAGEVISDPKLIRMNYLKTWFVIDLLSCLPYDVINAFENVDEGISSLFSSLKVVRLLRLGRVARKLDHYIEYGAAVLVLLVCVFGLAAHWMACIWYSIGDYEIFDEDTKTIRNNSWLYQLALDIGTPYQFNGSGSGKWEGGPSKNSVYISSLYFTMTSLTSVGFGNIAPSTDIEKIFAVAIMMIGSLLYATIFGNVTTIFQQMYANTNRYHEMLNSVRDFLKLYQVPKGLSERVMDYIVSTWSMSRGIDTEKVLQICPKDMRADICVHLNRKVFKEHPAFRLASDGCLRALAMEFQTVHCAPGDLIYHAGESVDSLCFVVSGSLEVIQDDEVVAILGKGDVFGDVFWKEATLAQSCANVRALTYCDLHVIKRDALQKVLEFYTAFSHSFSRNLILTYNLRKRIVFRKISDVKREEEERMKRKNEAPLILPPDHPVRRLFQRFRQQKEARLAAERGGRDLDDLDVEKGNALTDHTSANHSLVKASVVTVRESPATPVSFYPIPEQTLQATVLEVKHELKEDIKALNAKMTSIEKQLSEILRILMSRGSSQSPQDTCEVSRPQSPESDRDIFGAS
notes: rat Eag1 voltage-dependent K+ channel; construct corresponding to rat Eag1 with residues 773 to 886 truncated; Tetrameric channel (C4 symmetric up map); The C-terminal GFP-His6 tag was linked by a preScission protease site and removed; also called Eag channel; Eag Kv channel; not shown: GFP, C-terminal, cleaved; His6, C-terminal, cleaved
As for B1, the binding result in series [1] and in series [2] was “binds” each time.
